Among the data in patent US20220136009, “COMPOSITIONS AND METHODS FOR SELECTIVE GENE REGULATION” (Encoded Therapeutics, Inc., published 2022) are activity values, retold here.

Common to all, as to details: tags: NLS, HA tag
Series [1] has as its target Construct 4 eTF (eZF z1-VP64) (synthetic construct). Kind of series: cell_activity; endogenous SCN1A mRNA in HEK293 vs EGFP-KASH; p=0.0097; also about 20-30% Scn1a upregulation in mouse hippocampus. The method, then:
(§1) HEK293 cells were cultured per standard methods, and transfected (FugeneHD, Promega) with 3 ug plasmid carrying an engineered transcription factor or control construct per well of a 6-well plate. 48h following transfection, cells were collected and RNA was isolated (Qiagen RNeasy Mini kit), and DNase treated. RNA (3 ug) was reverse transcribed using OligoDT primers (Superscript IV, Invitrogen). cDNA samples were analyzed by qPCR using Phusion Polymerase (New England Biolabs) and SYBR Green I: (30s at 98° C., 40×[10 sec at 98° C., 15 sec at 66° C., 15 sec at 72° C.]). Primers against SCN1A (5′-[…]-3′ (SEQ ID NO: 185); 5′-[…]-3′ (SEQ ID NO: 186)) were used to quantify levels of endogenous SCN1A transcript, and relative levels of SCN1A expression were determined by the delta-delta Ct method with GAPDH as a reference gene (5′-[…]′-3′ (SEQ ID NO: 187); 5′-[…]-3′ (SEQ ID NO: 188)). Data are presented as fold changes relative to the control condition.

Series [2] addresses Construct 29 eTF (eZF z14-VP64) (synthetic construct). Kind of series: cell_activity; endogenous SCN1A mRNA in HEK293 vs EGFP-KASH; p=0.164. Here is the method:
as §1

Series [3] deals with Construct 3 eTF (eZF z13-VP64) (synthetic construct). Kind of series: cell_activity; endogenous SCN1A mRNA in HEK293 vs EGFP-KASH; p=0.149. Here is the method:
as §1

Series [4] concerns the target Construct 30 eTF (eZF z13-VPR) (synthetic construct). Kind of series: cell_activity; SCN1A mRNA by RNAseq in iCell GABA neurons vs CBA-EGFP; SCN1A-selective among 40 neighbouring genes. Here is the method:
iCell GABA neurons (Cellular Dynamics) were plated in a 6-well plate (˜1E6 cells/well) and maintained per manufacturer's recommended protocol. 72h following plating, recombinant AAV (serotype AAV-DJ) expressing EGFP or activator (Construct 30), which comprises a zinc finger DBD fused to a VPR TAD driven by a CBA promoter) under the control of a CBA promoter was added to the culture media at approximately 2E11 genome copies/well.
One week following infection, RNA was isolated from cultured cells (Qiagen RNeasy Mini kit), and DNase treated. RNAseq libraries were prepared from the recovered RNA, using the TruSeq Stranded mRNA library kit (Illumina) and sequenced on an Illumina NextSeq (2×75 cycle paired end sequencing). Sequencing reads were aligned to human genome (RNASTAR) and differential expression analysis was performed with DESeq2. Data are presented as fold change with respect to control (AAVDJ-CBA-EGFP) samples (see FIG. 4). Results are shown in TABLE 14 and FIG. 4 illustrates the relative expression of endogenous SCN1A and the 40 nearest neighboring gene transcripts presented as fold changes relative to the control condition. Construct 30, as described in TABLE 1, was able to specifically increase expression of the SCN1A gene, or the Nav1.1 protein, as compared to the other genes examined. […]

Construct 30 eTF (eZF z13-VPR) (synthetic construct), sequence (chain, as listed by the source): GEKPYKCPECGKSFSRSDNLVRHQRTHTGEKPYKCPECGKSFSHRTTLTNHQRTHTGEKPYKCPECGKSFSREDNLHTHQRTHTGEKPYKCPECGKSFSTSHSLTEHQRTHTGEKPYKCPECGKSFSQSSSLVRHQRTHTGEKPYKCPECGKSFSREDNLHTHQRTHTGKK

B1: z1 target site (dsDNA)
DNA 1: CTAGGTCAAGTGTAGGAG
DNA 2: CTCCTACACTTGACCTAG
As to B1, the activity in series [1] is 5.12 fold.

B2: z14 target site (dsDNA)
DNA 1: GAGGATACTGCAGAGGTC
DNA 2: GACCTCTGCAGTATCCTC
As to B2, the activity in series [2] was 8.68 fold.

B3: z13 target site (dsDNA)
DNA 1: TAGGTACCATAGAGTGAG
DNA 2: CTCACTCTATGGTACCTA
B3: the activity was found to be 25.5 fold in series [3] and 63 fold in series [4].
